The RNAGym collection of RNA variant scans (doi:10.1073/pnas.2313332121)
Fewer inactive variants are shown than the library holds.

B1: TPR 5TU (parent)
chain: GGAUCUUCUCGAUCUAACAAAAAAGACAAAUCUGCCACAAAGCUUGAGAGCAUCUUCGGAUGCAGAGGCGGCAGCCUUCGGUGGCGCGAUAGCGCCAACGUUCUCAACUAUGACACGCAAAACGCGUGCUCCGUUGAAUGGAGUUUAUCAUG

Variants of: B1
Test: polymerase ribozyme fitness, log enrichment relative to wild type (log ratio); higher = more active; in vitro selection for triplet polymerase activity
Method in brief: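 The heterodimeric triplet polymerase ribozyme's subunits were each mutagenized into PCR-built libraries and transcribed. Every library was selected once, in triplicate, by annealing with a biotinylated primer, the partner subunit and triplets, incubating frozen at −7 °C, gel-excising extended constructs, capturing on streptavidin beads and running RT-PCR. Input and output libraries were Illumina-sequenced, with genotypes kept only at ≥10 input reads and ≥1 read per output. Fitness, from inverse-variance-weighted replicate averages, is the base-2 logarithm of genotype enrichment over wild-type enrichment.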

Variant | polymerase ribozyme fitness (log ratio)
C18G U31G A52G G80C U101C U127G | ≤ -4.2
A17G C87A C103U | ≤ -4.2
C18G G50A C76U A115G A119G | -3.18
A17U U33G A52C | ≤ -4.2
A17U A22U U44A G83C C131U | ≤ -4.2
C18G C57G G80U C87A U127C G128C | ≤ -4.2
A17G C32A A49C G83U A107G G143U | ≤ -4.2
C18U A20C G34U C76A C79A G88A | ≤ -4.2
A17G C129G | -3.57
A17U A40G G94C C132U | -4.03
C18A G58A G86U A119U | -2.06
C18G U55A A98G A106G G112U A120U | -3.87
A17G C72A U77G C79U U109G | ≤ -4.2
A17G C32G C76U | ≤ -4.2
C18G C36A C96U A138U | -4.03
A17G C38U G81A C96A | 0.341
C18G G50U G88A | -4.08
A17G C38U C57A C63A A115G U144A | -1.28
A17U C38A U44A G70C U82C C95U | ≤ -4.2
A17G A37U C87U C99A C123U | -3.98
A17U C93A | -2.74
C18G A21U A29C A37U C57U C95U U127G U148G | -3.75
A17U A19U A22G G88U A110G | ≤ -4.2
C18G C96U | -1.12

Variant | polymerase ribozyme fitness (log ratio)
A17U C69U G84C A97G | ≤ -4.2
A17U A29U C93A G141U | ≤ -4.2
A17U C51U U55A U78A G81C C123G | ≤ -4.2
C18G A19U G62C C85U C116A | -1.81
C18U A19G | -1.03
C18A A20G G46C U56C G94C C105G A122U | -0.89
C18G A52U U82A | -3.02
A17G C27U A49U C79A G83U C87U A120U | ≤ -4.2
A17U A40U C123U | -0.36
C18A A19C A40C C85U | 0.244
A17G C132G | -3.28
A17U A19U C63U G68C C95U C96A G140A | ≤ -4.2
A17U G25C A29U G48C U53A G70U C93G C129A C131A A150C | ≤ -4.2
C18G U53A U139C | ≤ -4.2
A17U C51U G83C A91U U139A G140A G141A U148C | ≤ -4.2
C18G A26U C35U U78A C99G U135C A147C | ≤ -4.2
A17U A29U G74C G124U | ≤ -4.2
A17G A37U C51U | -2.83
C18G A23C G34A A66U G84U U135A | ≤ -4.2
A17U C105A | -1.28
A17G G67C G86A | ≤ -4.2
A17U A40G C54U G83A A91C G126C | ≤ -4.2
A17G A29U G42A C87U G100U A110C A115C A120G U134A | ≤ -4.2
C18G A52C C69G C75G G94A C95U A113U | ≤ -4.2

Variant | polymerase ribozyme fitness (log ratio)
A17U A30U U55C C116U | -4.01
A17G U101A C105G | -3.18
A17G U31C C35G G86A A121U | -4.19
A17G A52U A64U G65A G86C A107C G128A | ≤ -4.2
C18G A21C A52G G84U G133C U134C | -4.07
C18G A41U A47C A49G G86A U104G | -3.44
A17U C35U A97U G141A | -1.34
C18G C63G G68U G71A U78G C85G G100A G141U | ≤ -4.2
A17U | -0.256
A17U C116U | -0.46
A17U G81C U102G U130G G141A | ≤ -4.2
C18G A137G U145G | -2.16
A17G G50U C95U G124C G141A | -0.476
A17G C108U | -3.09
C18G G50A C96G A121C | -2.18
A17U A20G C63A G92A A150U | -2.12
A17G U45A G50A G62U C79G G86U C103A | ≤ -4.2
C18G A28U A66U G94U C95A | ≤ -4.2
A17U C72U C99U | -1.38
C18A U55G C85A C118U | -2.09
A17U A21U U55A A91C C95G A98U C108G | ≤ -4.2
A17U G94A | -1.24
A17G C79A G80C U109C | ≤ -4.2
A17G A40C G48C | -1.5

Variant | polymerase ribozyme fitness (log ratio)
C18G G59U G84U | -2.51
C18G A28U A29U A66G G67C C96U A106C | ≤ -4.2
A17G U45G G80U | ≤ -4.2
A17U C93G U102A A107C G143A | ≤ -4.2
A17U C96A | -0.735
A17U C51A G94U A138G A150U | ≤ -4.2
A17U G94C C95U C105U | -0.248
A17G U31A U90C C93U C99G C125A A137C G143C | ≤ -4.2
A17U C87G | -3.75
A17U C79G C87U U144G | ≤ -4.2
A17U A22U A52G G92C A115G | -2.67
A17U G50A C87G G141A | ≤ -4.2
C18G G92C C129U A150U | -3.54
A17U U53G C57U G59C G117U | -0.451
A17U A113U | -1.99
A17U C51G G83A U134C | -3.2
A17U A29C A41G G59C C85G | ≤ -4.2
A17G C18U A40C C99G | -3.19
C18G U55A | -0.923
C18A C85A G112C C116U | ≤ -4.2
A17U A20G G42C C85U G128C | ≤ -4.2
C18G C35A C76U G83C G84U G88A G141U | ≤ -4.2
A17G U109G G140U | -3.77
C18U A20G C87G U102G | ≤ -4.2

Variant | polymerase ribozyme fitness (log ratio)
A17G C93A A106G | -1.94
A17U C54G C96U | -2.08
C18A U56A G92U C105U C114A U144G | -3.79
A17G U145C | 0.174
C18G C116U | -0.663
A17U A21G C27G A28U C85A C87U C95G | ≤ -4.2
A17U G80C C93A U101G | ≤ -4.2
A17U C85U U104G | -1.01
C18G C35A G46C G58C C95G A113U | ≤ -4.2
A17G G71A | -3.06
A17U C85A | -1.17
A17U C93U C114A C116G | ≤ -4.2
A17U G48A C51G U55G C96G C105U C118U G136U G141U | ≤ -4.2
C18A C27A A40U C87U C118U | -4.17
A17U U55A G84C C95G U148A | -3.23
C18A G86U C103U U145A | -2.81
C18G C36A C95A C96A | ≤ -4.2
A17U A19U A22U U61A G83A G84A G100U | ≤ -4.2
C18U A19G G94A | -2.01
C18A C69G C96U C103A | -2.88
A17G A37U U82C C96A | -2.2
C18G A21C A49C C93A | ≤ -4.2
C18G G84C G126U | -2.27
C18G A29U U31G U44C A49U C76U A98G C118A | ≤ -4.2

Variant | polymerase ribozyme fitness (log ratio)
A17U C96G A142U U146A | -2.11
A17G G59U A97C C99G | -2.61
A17U A52U A142C | -3.3
A17U A20C A26C C93U C131U | -2.3
A17G U90C C93U C105G A122G G143C | ≤ -4.2
A17G C18G A64G C85A G100A A106U A119U | ≤ -4.2
A17G C85G | -1.33
A17U A37U G59C G81A A97G C116G | -1.87
A17G G46A C69A A121G | -3.45
A17G A52C | -0.98
A17U C54A A89C C99A G136A | -4.03
A17G G84A A147C | -0.273
A17G C69G C85G A107C A122G | ≤ -4.2
C18G C51U C87G C99A U101C C118U G136A | ≤ -4.2
C18G G80U C116U | -1.62
A17G U134G | -1.76
A17G C38G C51A U78G U90G C131A | ≤ -4.2
C18U A19U A24G G74U C79U | ≤ -4.2
A17U A21C U44A A49C C72A U82A U134A | ≤ -4.2
C18A A89G U90G A97G | ≤ -4.2
A17U A37C C93G C96A | ≤ -4.2
A17U A23U C36G C57A G70U U78C C85U C103G A147C C149U | ≤ -4.2
C18G G25C U33C C108G | -3.95
A17U A26C C38U G83A G124U | -3.97

Variant | polymerase ribozyme fitness (log ratio)
A17G U61A G71A G143A | ≤ -4.2
A17G C125A | 0.215
A17G U53A C99G U130C | ≤ -4.2
C18G A52G C87U | -1.15
A17U A19U A37U U53A G58A C95A A121G A122C | -3.75
A17U A24U G83C | 0.0208
A17U C87U U90C C99G | -3.69
C18G A49C C57G C87A G128U U146G | ≤ -4.2
A17U C32G G48A C79G G84U G86U C108U | ≤ -4.2
A17U A47G C57U G74C U77C U82A G83A U102G A150G | ≤ -4.2
A17G G84A | -0.469
C18G G86A C87A A91C A120C | ≤ -4.2
C18G G84U G117U A121G | -2.06
A17G C51U A106G A120C A122U | -1.36
C18U A20G C76A U77A G92U U101A U134G | ≤ -4.2
A17U A24G A26G A47G G50A G65C U111C A142U | ≤ -4.2
A17U C57A G83C C99G | ≤ -4.2
A17U G46U G84A C105U | -0.266
C18A A39C G58C G84A U145G | -3.36
C18G A19G A20U C57U G68C G141A | ≤ -4.2
C18A A21C A37C G81A C87G | ≤ -4.2
A17U A21U G67C C76U A91U C118G | ≤ -4.2
A17U U33A U45A C57G G70C C87A A98U | ≤ -4.2
